Values belong to the binder of their own block, whether it stands above or below them. Where no end group is shown, it is not given here. The star is where a group is joined. Biotin = O=C1N[C@H]2[C@H](CS[C@H]2CCCCC(=O)*)N1
Tests used:
[1] = target: T1, biotin-peptide TSSMEDYVNF (human); test: ELISA biotin-peptide; scFv 2.5 ug/mL; repII
T1 peptide: Biotin-TSSMEDYVNF
Experimental: (§1) The peptides were synthesized naked or with a N-terminal Biotin modification with a purity of >98%. All four scFvs were verified by ELISA that can be detected with anti-His antibodies. ELISA was performed for scFv-peptide binding validation. Briefly, naked peptides were coated (50 μg/mL) in 0.58M carbonate-bicarbonate buffer pH9.5, 100 μL/well, 4° C. O/N. Then after blocking (3% BSA-PBS, 300 μL/well 37° C. 1.5 h) and washing (PBS+Tween-20 0.05% v/v (0.05% PBST), wells were incubated with each purified scFv antibody at concentration of 1 μg/mL in PBS at 37° C. 1 h. After washing (0.05% PBST), wells were incubated with secondary antibodies (goat anti-His IgG-HRP) in PBS, 37° C., 30 min. After washing, and incubation with TMB substrate, reactions were stopped with 2M HCl and reading was quantified at OD450.
(§2) ELISA with biotin-conjugated peptides (5 μg/mL) was performed very similar to described above with minor modifications.
(§3) A full curve ELISA was performed for each positive scFv/biotin-peptide pair in order to confirm previous results. Tables 15-17 show ELISA results of the dose-dependent full curve for each positive peptide with scFv “CCR9_HUM”, “Comp-2” and “Comp-3”, respectively.

[2] = target: T2, biotin-peptide SSMEDYVNFN (human); test: ELISA biotin-peptide; scFv 2.5 ug/mL; repII
T2 peptide: Biotin-SSMEDYVNFN
Experimental: as §1, §2, §3

[3] = target: T3, biotin-peptide SMEDYVNFNF (human); test: ELISA biotin-peptide; scFv 2.5 ug/mL; repII
T3 peptide: Biotin-SMEDYVNFNF
Experimental: as §1, §2, §3

[4] = target: T4, biotin-peptide MEDYVNFNFT (human); test: ELISA biotin-peptide; scFv 2.5 ug/mL; repII
T4 peptide: Biotin-MEDYVNFNFT
Experimental: as §1, §2, §3

[5] = target: T1, biotin-peptide TSSMEDYVNF; test: ELISA biotin-peptide; scFv 0.625 ug/mL; repII
Experimental: as §1, §2, §3

[6] = target: T2, biotin-peptide SSMEDYVNFN; test: ELISA biotin-peptide; scFv 0.625 ug/mL; repII
Experimental: as §1, §2, §3

[7] = target: T3, biotin-peptide SMEDYVNFNF; test: ELISA biotin-peptide; scFv 0.625 ug/mL; repII
Experimental: as §1, §2, §3

[8] = target: T4, biotin-peptide MEDYVNFNFT; test: ELISA biotin-peptide; scFv 0.625 ug/mL; repII
Experimental: as §1, §2, §3

[9] = target: T5, Peptide 3-BSA (SSMEDYVNFN-C conjugated to BSA) (human); test: ELISA; Ab 0.5 ug/mL; repII
T5 peptide: SSMEDYVNFNC(BSA)
Experimental: (§4) In brief, plates with each non-conjugated peptide (50 μg/mL) or BSA-conjugated peptide (5 μg/mL) were coated in 0.58M carbonate-bicarbonate buffer pH9.5, 100 μL/well, at 4° C. […] After washing, wells were incubated with the 3, 3′,5,5′-Tetramethylbenzidine (TMB) HRP substrate and reactions were stopped with 2M HCl and OD450 was recorded.

[10] = target: T6, Peptide 1, non-conjugated (MADDYGSEST-C) (human); test: ELISA; Ab 0.5 ug/mL; repII
T6 construct: With the extra C-terminal Cys
T6 peptide: MADDYGSESTC
Experimental: as §4

[11] = target: T7, Peptide 2, non-conjugated (GSESTSSMED-C) (human); test: ELISA; Ab 0.5 ug/mL; repII
T7 construct: With the extra C-terminal Cys
T7 peptide: GSESTSSMEDC
Experimental: as §4

[12] = target: T8, Peptide 3, non-conjugated (SSMEDYVNFN-C) (human); test: ELISA; Ab 0.5 ug/mL; repII
T8 construct: With the extra C-terminal Cys
T8 peptide: SSMEDYVNFNC
Experimental: as §4

[13] = target: T9, Peptide 4, non-conjugated (SMEDYVNFNF-C) (human); test: ELISA; Ab 0.5 ug/mL; repII
T9 construct: With the extra C-terminal Cys
T9 peptide: SMEDYVNFNFC
Experimental: as §4

[14] = target: T10, BSA (negative control coating) (bovine, UniProt P02769 25-607); test: ELISA; Ab 0.5 ug/mL; repII
T10 construct: also called Negative control BSA
T10 sequence (P02769 25-607 limits assumed): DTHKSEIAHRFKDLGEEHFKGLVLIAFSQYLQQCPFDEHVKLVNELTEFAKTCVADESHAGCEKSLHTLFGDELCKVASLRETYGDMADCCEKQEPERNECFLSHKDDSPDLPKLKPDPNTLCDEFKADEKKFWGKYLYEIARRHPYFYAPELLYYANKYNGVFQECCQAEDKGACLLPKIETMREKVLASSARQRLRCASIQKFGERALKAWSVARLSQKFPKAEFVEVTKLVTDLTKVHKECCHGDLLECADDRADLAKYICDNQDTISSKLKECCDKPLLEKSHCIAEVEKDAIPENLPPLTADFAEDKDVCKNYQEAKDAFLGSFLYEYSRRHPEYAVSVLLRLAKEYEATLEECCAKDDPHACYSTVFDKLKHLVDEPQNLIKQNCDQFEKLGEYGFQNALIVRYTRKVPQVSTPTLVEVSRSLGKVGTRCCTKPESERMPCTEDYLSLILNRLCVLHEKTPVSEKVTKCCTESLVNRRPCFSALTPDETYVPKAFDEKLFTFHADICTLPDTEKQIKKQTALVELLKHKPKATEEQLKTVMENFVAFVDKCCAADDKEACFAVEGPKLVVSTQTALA
Experimental: as §4

[15] = target: T11, antigen peptide-BSA (immunisation peptide #1 MADDYGSESTSSMEDYVNFNF-C conjugated to BSA) (human, extra C-terminal Cys conjugated to BSA); test: ELISA; Ab 0.5 ug/mL; repII
T11 construct: also called Positive control antigen peptide-BSA; MADDY peptide
T11 peptide: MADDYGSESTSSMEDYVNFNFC
Experimental: as §4

[16] = target: T12, Peptide 1-BSA (MADDYGSEST-C conjugated to BSA) (human); test: ELISA; Ab 0.5 ug/mL; repII
T12 peptide: MADDYGSESTC(BSA)
Experimental: as §4

[17] = target: T13, Peptide 2-BSA (GSESTSSMED-C conjugated to BSA) (human); test: ELISA; Ab 0.5 ug/mL; repII
T13 peptide: GSESTSSMEDC(BSA)
Experimental: as §4

[18] = target: T5, Peptide 3-BSA (SSMEDYVNFN-C conjugated …); test: ELISA; Ab 0.03125 ug/mL; repII
Experimental: as §4

[19] = target: T6, Peptide 1, non-conjugated (MADDYGSEST-C); test: ELISA; Ab 0.03125 ug/mL; repII
Experimental: as §4

[20] = target: T7, Peptide 2, non-conjugated (GSESTSSMED-C); test: ELISA; Ab 0.03125 ug/mL; repII
Experimental: as §4

[21] = target: T8, Peptide 3, non-conjugated (SSMEDYVNFN-C); test: ELISA; Ab 0.03125 ug/mL; repII
Experimental: as §4

[22] = target: T9, Peptide 4, non-conjugated (SMEDYVNFNF-C); test: ELISA; Ab 0.03125 ug/mL; repII
Experimental: as §4

[23] = target: T10, BSA (negative control coating); test: ELISA; Ab 0.03125 ug/mL; repII
Experimental: as §4

[24] = target: T12, Peptide 1-BSA (MADDYGSEST-C conjugated …); test: ELISA; Ab 0.03125 ug/mL; repII
Experimental: as §4

[25] = target: T6, Peptide 1, non-conjugated (MADDYGSEST-C); test: ELISA, non-conjugated peptide coated
Experimental: as §4

[26] = target: T7, Peptide 2, non-conjugated (GSESTSSMED-C); test: ELISA, non-conjugated peptide coated
Experimental: as §4

OD450 [1]: 1.4 OD | OD450 [2]: 1.78 OD | OD450 [3]: 1.77 OD | OD450 [4]: 1.64 OD | OD450 [5]: 0.67 OD | OD450 [6]: 1.74 OD | OD450 [7]: 1.67 OD | OD450 [8]: 1.46 OD
B1: CCR9_HUM2 scFv (humanized anti-CCR9 scFv, SEQ ID NO: 17 with C-terminal 6xHis tag) (scFv)
scFv: QVQLVQSGAEVKKPGASVKVSCTASGYSFTDYIIYWVKQAHGQSLEWMGYIDPNNYNTRYSQKFQGKVTITVDKSSTSAYMELNSLTSDDTAVYYCARDVYWGQGTTVTVSSGGGGSGGGGSGGGGSGGGGSDVVMTQTPLSLSVTPGQPASISCRSSQSLVHSNGKTYLQWYLQKPGQSPKLLIYKVSNRFSGVPDRFSGSGSGTDFTLKISRVEAEDVGVYFCAQSTHVWTFGGGTKVEIKRAHHHHHH

OD450 [9]: 2.06 OD | OD450 [10]: 0.02 OD | OD450 [11]: 0.02 OD | OD450 [12]: 1.83 OD | OD450 [13]: 2.37 OD | OD450 [14]: 0.02 OD | OD450 [15]: 2.57 OD | OD450 [16]: 0.02 OD | OD450 [17]: 0.02 OD | OD450 [18]: 1.57 OD | OD450 [19]: 0.01 OD | OD450 [20]: 0.01 OD | OD450 [21]: 1.62 OD | OD450 [22]: 0.76 OD | OD450 [23]: 0.01 OD | OD450 [24]: 0.01 OD | binding result [25]: no binding (tested: 1 ug/mL) | binding result [26]: no binding (tested: 1 ug/mL)
B2: anti-CCR9 antibody clone 115 (murine, from hybridoma #115) (antibody, V domains shown)
VH: QVQLKQSGPELVKPGTSVRVSCTASGYSFTDYIIYWVKQSHGRSLEWIGYIDPNNYNTRYSQKFKGKATLTVDKSSTSAFMHLNSLTSDDSAVYYCARDVYWGQGTTLTVSS
VL: DVVMTQTPLSLTVSLGDQASISCRSSQSLVHSNGKTYLQWYLQKPGQSPKLLIYKVSNRFSGVPDRFSGSGSGTDFTLKISRVEAEDLGVYFCAQSTHVWTFGGGTKLEIKR
notes: Mouse IgG1

Reference: patent US20260232732A1 (FUNDACI INSTITUT DE RECERCA CONTRA LA LEUC MIA JOSEP …, published 2026)
